Drawing on the Immune Epitope Database (IEDB), this text covers Kd and IC50 for 29 sequences.

pIC50, pKd: −log10 of the molar value.

Conditions in all cases: source organism: Vaccinia virus WR
The target of assay [1] is HLA-A*31:01. Nature of the assay: IEDB peptide-MHC binding, purified MHC/competitive/radioactivity; filed as Kd, often an IC50 or EC50 that approximates it; ≥ and ≤ were set here for values at or beyond the usual limits of such assays.
Assay [2] deals with HLA-A*33:01. The assay is described as above.
Assay [3] has as its target HLA-A*03:01. Nature of the assay: IEDB peptide-MHC binding, purified MHC/competitive/radioactivity; ≥ and ≤ were set here for values at or beyond the usual limits of such assays.
For assay [4], the target named is HLA-A*68:01. The description is as above.
Assay [5] has as its target HLA-A*11:01. The assay is described as above.
The target in assay [6] is HLA-A*29:02. Described as above.
In assay [7] the target is HLA-A*30:02. Described as above.
In assay [8] the target is HLA-A*26:01. The assay is described as above.
Assay [9] has as its target HLA-A*01:01. The assay is described as above.
Assay [10] addresses HLA-A*29:02. Nature of the assay: IEDB peptide-MHC binding, purified MHC/competitive/radioactivity; filed as Kd, often an IC50 or EC50 that approximates it; ≥ and ≤ were set here for values at or beyond the usual limits of such assays.
The target in assay [11] is HLA-A*30:02. Described as above.
The target of assay [12] is HLA-A*26:01. The description is as above.
The target in assay [13] is HLA-A*02:02. Nature of the assay: IEDB peptide-MHC binding, purified MHC/competitive/radioactivity; ≥ and ≤ were set here for values at or beyond the usual limits of such assays.
The target in assay [14] is HLA-A*02:03. The assay is described as above.
Assay [15] has as its target HLA-A*68:02. The description is as above.
For assay [16], the target named is HLA-A*02:06. The description is as above.
Assay [17] addresses HLA-A*68:02. Nature of the assay: IEDB peptide-MHC binding, purified MHC/competitive/radioactivity; filed as Kd, often an IC50 or EC50 that approximates it; ≥ and ≤ were set here for values at or beyond the usual limits of such assays.
Assay [18] concerns the target HLA-A*68:01. The description is as above.
Assay [19] has as its target HLA-B*53:01. Described as above.
Assay [20] concerns the target HLA-B*51:01. Described as above.
For assay [21], the target named is HLA-B*54:01. Described as above.
In assay [22] the target is HLA-B*07:02. Nature of the assay: IEDB peptide-MHC binding, purified MHC/competitive/radioactivity; ≥ and ≤ were set here for values at or beyond the usual limits of such assays.
Assay [23] addresses HLA-B*35:01. The assay is described as above.
The target of assay [24] is HLA-A*31:01. The description is as above.
Assay [25] has as its target HLA-B*35:01. Nature of the assay: IEDB peptide-MHC binding, purified MHC/competitive/radioactivity; filed as Kd, often an IC50 or EC50 that approximates it; ≥ and ≤ were set here for values at or beyond the usual limits of such assays.
Assay [26] concerns the target HLA-B*54:01. Nature of the assay: IEDB peptide-MHC binding, purified MHC/competitive/radioactivity; ≥ and ≤ were set here for values at or beyond the usual limits of such assays.
Assay [27] addresses HLA-A*24:02. Described as above.
The target in assay [28] is HLA-A*23:01. The description is as above.
In assay [29] the target is HLA-A*02:06. Nature of the assay: IEDB peptide-MHC binding, purified MHC/competitive/radioactivity; filed as Kd, often an IC50 or EC50 that approximates it; ≥ and ≤ were set here for values at or beyond the usual limits of such assays.
The target of assay [30] is HLA-A*01:01. The assay is described as above.

For AVFKDSFLRK, the pKd was 6.16 in assay [1] and ≤ 4.37 in assay [2]. Moreover, the pIC50 in [3] is 8.09; in assay [4], 7.33; in [5], 6.92.
Regarding DMCDIYLLY, the pIC50 in assay [6] is 7.05; in assay [7], 7.26; in assay [8], 7.09; in [9], 7.55.
Take FGDSKEPVPY: the results for the pKd in assay [10], in [11] and in [12] were 6.25, 5.09 and 5.25, respectively. In addition, the pIC50 in assay [9] was 6.86.
Consider FLNISWFYI, for which the pIC50 in assay [13] is 9.77; in assay [14], 9.48; in assay [15] it was 6.62; in assay [16] it was 9.00.
For the sequence FLSMLNLTKY, the pKd in assay [12] was 5.11. For the same sequence, the pIC50 in assay [6] was 6.81; in [7] it was 6.30; in assay [9], 6.57.
Regarding FLTSVINRV, the pIC50 was 9.96 in assay [13], 8.85 in assay [14], 9.38 in assay [15] and 8.32 in assay [16].
As for FTIDFKLKY, the pKd in [11] was 5.98. Also, the pIC50 in assay [6] is 8.85; in assay [8] it was 7.68; in [9], 7.22.
As for GLNDYLHSV, the pKd in assay [17] is 5.57. In addition, the pIC50 in assay [13] was 9.13; in assay [14] it was 8.85; in assay [16], 8.41.
For the sequence GTIAGGVCYY, the pKd in assay [18] was 4.96; in assay [1], 5.07; in [2], ≤ 4.41. In addition, the pIC50 in [3] is 6.88; in assay [5] it was 8.35.
As to HPRHYATVM, the pKd is 5.51 in [19], 4.83 in [20] and 5.36 in [21]. Also, the pIC50 in [22] is 9.06; in assay [23], 7.20.
With ILDDNLYKV, in assay [17], the pKd is ≤ 4.32. Besides, the figures for the pIC50 in [13], in assay [14] and in [16] were 8.35, 7.21 and 8.05, respectively.
With IVFNLPVSK, the pKd in assay [2] is 5.50. The pIC50 in assay [3] is 8.66; in assay [4] it was 8.27; in assay [24] it was 7.64; in [5], 8.34.
Regarding KLKIISNDYK, the pKd in assay [18] and in [2] was ≤ 4.30 each time. In addition, the pIC50 in assay [3] is 8.35; in assay [24], 6.86; in [5], 6.33.
For KPKPAVRFAI, the negative logarithm of the Kd (pKd) in [25] is ≤ 4.44; in assay [19], ≤ 4.69; in assay [20], ≤ 4.30; in assay [21] it was 6.17. Also, in assay [22], the pIC50 was 9.74.
Turning to KTKNFTIDFK, the pKd in assay [2] was ≤ 4.39. Further, the pIC50 in assay [3] was 7.96; in assay [4], 6.84; in assay [24] it was 7.85; in assay [5], 7.66.
Turning to KVLHVTDTNK, the results for the pKd in assay [18] and in assay [2] were 5.52 and ≤ 4.30, respectively. For the same sequence, the figures for the pIC50 in assay [3], in [24] and in [5] were 8.09, 6.33 and 8.00, respectively.
For the sequence KVMFVIRFK, in [2], the pKd is 6.07. For the same sequence, the pIC50 in assay [3] is 8.85; in [4] it was 7.52; in assay [24], 8.31; in assay [5], 8.14.
As for NLFDIPLLTV, the pIC50 in assay [13] is 10.00; in [14], 9.60; in assay [15], 8.09; in [16], 8.82.
NQVKFYFNK: the pKd in [2] is 6.09. Further, the pIC50 in [3] is 6.72; in assay [4], 8.24; in assay [24], 7.82; in assay [5], 8.66.
Consider QSDTVFDYY, for which the results for the pKd in assay [10], in [11] and in assay [12] were ≤ 4.30, 5.53 and ≤ 4.30, respectively. For the same sequence, the pIC50 in [9] is 9.00.
In the case of QSITRSLIY, the pKd in assay [12] is 5.30. For the same sequence, the results for the negative-log IC50 (pIC50) in [6], in [7] and in [9] were 6.53, 6.54 and 7.13, respectively.
As to RPMSLRSTII, the pKd in assay [25] is ≤ 4.34; in assay [19], 5.91; in assay [20], 5.02. Besides, the values for the pIC50 in [22] and in [26] were 9.37 and 6.58, respectively.
With RYRFAFLYLL, the pKd in assay [10] is 4.79. The pIC50 in assay [27] is 6.78; in assay [28], 7.39.
Regarding SMHFYGWSL, the pKd in assay [29] is 5.69.
For SQSDTVFDY, the pKd in assay [10] is 6.07; in assay [12], 5.73; in assay [30] it was 5.52. Further, in [7], the pIC50 is 8.64.
Turning to VSVNNVCHMY, the pKd in [10] is 5.97; in assay [12], 5.37. Also, the pIC50 in [7] was 8.43; in assay [9], 6.89.
In the same order, the values of VTDTNKFDNY are ≤ 4.30, ≤ 4.30, 6.59 and 8.80.
Consider VTSSGAIYK, for which the pKd was 5.40 in assay [1] and ≤ 4.67 in assay [2]. The pIC50 in assay [3] was 8.00; in assay [4], 7.62; in [5], 8.51.
With VWINNSWKF, the values for the pIC50 in [27], in [28] and in [6] were 8.19, 8.28 and 8.31, respectively.
